Experimental data taken from the DeepSol protein solubility set.

Assay: soluble on expression in E. coli; label from the status in PepcDB or PDB records

Sequence	soluble on expression in E. coli
MSKLKKKEYEQELKKLQVELVKLQEWVKHKGLKVVVLFEGRDAAGKGGVIKRITEKLNHRVCRVVALPAPTEKEKTQWYFQRYVAHLPSAGEIVLFDRSWYNRAGVEKVMGFCTPDEYEEFLRSCPEFERMLQRSGIILLKYWFSVSDEEQEKRFLGRINTPIKRWKFSPMDLESRHRWAEYSEAKDKMFAYTDTKNCPWWVVPSDSKQKARLNCISHLLSQIEYKALEYPPIELPEINKEGYVRAPIDDQTFVPDKY	not soluble
MAHHHHHHMLEGPNAEEAKKAILECDGIFVPGGFGKRGVDGKCAAVALARHHNIPYFGVCLGMQVALIQVCREELGWKDANSEEFDPSSTHQIVRIMDCDRHSMGANMHLGARNVHLVEKNSIMSTIYSGADFVVERHRHRYEVNTTYLGQLRGAGVLISGVSDPTFGPHTRVEAIEIPSLRFFLAVQFHPEFVSSPMDPSPPYLAFMAAASKKEYKWPESCAARRVKTL	not soluble
MGYRIEFDPRAEKELEKLDREVARRILRFLRERVATLEDPRSLGEPLRGPELGRFWKYRVGDYRLICHIQDREATVLVLRVGHARDVYR	soluble
MGSDKIHHHHHHDTEKKVSEEGFVFTTVKENPITSVKNQNRAGTCWCYSSYSFLESELLRMGKGEYDLSEMFTVYNTYLDRADAAVRTHGDVSFSQGGSFYDALYGMETFGLVPEEEMRPGMMYADTLSNHTELSALTDAMVAAIAKGKLRKLQSDENNAMLWKKAVAAVHQIYLGVPPEKFTYKGKEYTPKSFFESTGLKASDYVSLTSYTHHPFYTQFPLEIQDNWRHGMSYNLPLDEFMEVFDNAINTGYTIAWGSDVSESGFTRDGVAVMPDDEKVQELSGSDMAHWLKLKPEEKKLNTKPQPQKWCTQAERQLAYDNYETTDDHGMQIYGIAKDQEGNEYYMVKNSWGTNSKYNGIWYASKAFVRYKTMNIVVHKDALPKAIKAKLGIK	not soluble
MSLRHDVILVLLDGLNHSVARDCMGHLQALCGAGRGQSYRLECELPSLSRPLYECILTGVPPIDSGILHNDVVRLSQEQSLFHYARAAGLSTAAAAYHWVSELYNRAPFDPARDRHTDDSALPIQRGHFYWSDHYPDSHLFADAESLRRRHAPNFMLVHSMNIDDAGHRHGLASPAYRNAARRADALLSEYLHQWLAAGYQVAITADHGMNEDRSHGGILEEEREVPLFVFGDAFSRDDLAQPLQTDLCGTLCEILGAAHDKPVCREEGHHHHHH	not soluble
VINARLGKKDEINVCKLKISAWDEEEAVCIMSISEERMFILKMLEEGKITSEEAARLLEAIDPDKGTADSGSGFKAQQRKTNFADEVSKVRDKLNEWKKEFKKNYNQKDFERAVDEFSSKVEKLGKNLAYTTIGVADKLVDFISSFVETNSFNVFGKYKATNRVFEVPDVNEDMELNIEAINGHILVKKHMENKVIIRTTVKSPADNADEILDFSREENKVTLKCNKIGNISVSHEIFLPSVKVKNISLVTKNGKVYVEDSISENFEAVTSNSNVDLMGVNGDKINVSNKNGRINFGYIIGKDINIDAVNSVIEIRQIKTTNINASTRNGRIFIENVHNHNDDPNINMNLKTSSADIKVNMNDMEKRGYKIKAQTTHAEINLLIPEMTYRNISKQMSSNFVEADSDGYDDYINKVNIVAETTNGNIEIVK	not soluble
MGSDKIHHHHHHMMSVQTTKLDAVPLGDRAPILEMRGISQIFPGVKALDGVNIALYPGEVTALIGENGAGKSTLVKILTGIYRPNEGEIVIDGSPVTFADAQAAIDAGVTAIHQETVLFDELSVAENIFLGHAPKTRFGFIDWNGINTKARALMDRLESKIDPTIRLKDLSIAQRHLVAIARALSVEARIVIMDEPTAALSRKEIDDLFRIVEGLKRDGKAILFISHKFDEVYEIAENYAVFRDGKMVGAGRLQSTPQDEIVRLMVGRDVHDAFPKIDVSIGAAVLSVSRYCHDTEFRDISFDLRKGEILGFYGLIGAGRSELCQSLFGITHPASGTVTLEGRALDIRSPADAIAAGIVYVPEERGRHGLALQMPIYQNMSLPSLARVSARGFLKVVNELALARHYAERLDLRAAALSVPVGTLSGGNQQKVVIGKWLATKPKVIILDEPTKGIDIGSKAAVHGFISELAAEGLSIIMISSELPEILGMSDRVMVMREGLQAGIFEREALTPEVLVRAATGNA	not soluble
MRILHTSDWHLGQNFYSKSREAEHQAFLDWLLETAQTHQVDAIIVAGDVFDTGSPPSYARTLYNRFVVNLQQTGCHLVVLAGNHDSVATLNESRDIMAFLNTTVVASAGHAPQILPRRDGTPGAVLCPIPFLRPRDIITSQAGLNGIEKQQHLLAAITDYYQQHYADACKLRGDQPLPIIATGHLTTVGASKSDAVRDIYIGTLDAFPAQNFPPADYIALGHIHRAQIIGGMEHVRYCGSPIPLSFDECGKSKYVHLVTFSNGKLESVENLNVPVTQPMAVLKGDLASITAQLEQWRDVSQEPPVWLDIEITTDEYLHDIQRKIQALTESLPVEVLLVRRSREQRERVLASQQRETLSELSVEEVFNRRLALEELDESQQQRLQHLFTTTLHTLAGEHEA	soluble
MTEITGGTLVLVGADHPVAHLDVTAFEASVTHDVMAASVAGTGLGVSTATAAGLSHLVVDAGVAQPVQGARSVRIRGERGDLRHADAMTPVQVEALLRDGQALGAEASHDGLVCLGEVGVGNTTIATALACAMTGLGPDEAVGLGAGSDTAMVERKAEIIKAALTRTHTDPNDPERLLAALGGPEFAVLAGVCLGAAEAGSPVVLDGLATSVAALIATKFSPGLHGWLVASQASREQVHHIVLAELGLEALMELRMRAGEGVGACFGAQMILTGLQVRRTAARTCLEHHHHHH	not soluble
MMELETGQCTIMELKKENVKELAQVFKTVAFKDTGTWHASEAGMKITVDDGSYQLASVFINPAFFSSFKVREEIVSMKISIKSISEFLSISENSSSSVKVSYPGMFQPVKMLVEDADGWVARGNFTTTLADQELDFEFDDAGVLATYLLKTQVLKEIIKDFDDTSRTVRIQFTKNSLCFTTFGDVGETTVSIPSRSLQMESVKCLEEVEFSYLLSLIQRMTTAFILATKLILRVDERGVLSCQFSIDHGEGNASYIEFLTVPADEEE	not soluble
MSLDFRDYMVKQVAARSGYQLQLDGPLRWHVWPQLSILSGRMSLTAQGASQPLVRADNMRLDVALLPLLSHQLSVKQVMLKGAVIQLTPQTEAVRSEDAPVAPRDNTLPDLSDDRGWSFDISSLKVADSVLVFQHEDDEQVTIRNIRLQMEQDPQHRGSFEFSGRVNRDQRDLTISLNGTVDASDYPHDLTAAIEQINWQLQGADLPKQGIQGQGSFQAQWQESHKRLSFNQISLTANDSTLSGQAQVTLTEKPEWQLRLQFPQLNLDNLIPLNETANGENGAAQQGQSQSTLPRPVISSRIDEPAYQGLQGFTADILLQASNVRWRGMNFTDVATQMTNKSGLLEITQLQGKLNGGQVSLPGTLDATSINPRINFQPRLENVEIGTILKAFNYPISLTGKMSLAGDFSGADIDADAFRHNWQGQAHVEMTDTRMEGMNFQQMIQQAVERNGGDVKAAENFDNVTRLDRFTTDLTLKDGVVTLNDMQGQSPVLALTGEGMLNLADQTCDTQFDIRVVGGWNGESKLIDFLKETPVPLRVYGNWQQLNYSLQVDQLLRKHLQDEAKRRLNDWAERNKDSRNGKDVKKLLEKMEGHHHHHH	soluble
MGGSLGLALQEWGRFKSVIGYDHNALHAKLALTLGLVDECVGFEKILECDVIFLAIPVEGIIGCLKKMTSIKKSATIIDLGGAKAQIIRNIPKSIRKNFIAAHPMCGTEFYGPKASVKGLYENALVILCDLEDSGTEQVEIAKEIFLGVKARLIKMKSNEHDTHVAYISHLPHVLSYALANSVLKQNDPEMILSLAGGGFRDMSRLSKSSPLMWKDIFKQNRDNVLEAIKKCEKEIVQAKAWIENNDYESLAEWMAQANKLQEFMLEHHHHHH	not soluble
MKRVFCPKCDGAITISRETLSQASPNGSLSLLCPHCCHQLRIRLVSKSDNSHNHKTEQEEQELAQELDRSRGYIVVLENIFGYRQEFALREGDNGIGRRNKDSVVDIAVLTGDPSMGRHHCILRVTPKKDGSFLYSIADDDSLVGTFVGGRLLDKKEWCRLNDGDVITMGATSAILYTSDHKDTESEEKN	not soluble
MPNDLKKELRELKETLEYLKKSFEVISQLAQAYIRLLNVYAEYGDLGIDVVIPEIKHDPIARDIVKILFDLRRANVSQIARELKGRRGKASRNTVRKKLKELEKLGVVKEVPGERGSVYTLSREVVKKWLDLIGIPINLLLEHHHHHH	soluble
MAHHHHHHMQQASAAASDEWRTKFGGGGASHDWQASKGNFTNQEFESYWGQKWPNWLKTEKATYPNAANKKWLEQNPPPKQGPAQAKTAKQLAVYAEEAAALARTYTEGITAAHGRELKAIKTALRAALYGTNKKTARAFRR	soluble
MSLNPKAKFAVIDDLETSRLHISHILQEDGFTVDLFDSATQFLLMKDEILDYAGLIIDIHMPGYNGYELAETIHAMFGTSAPPFIFISASPESIRHDRFNTEHMWQGFAKPMDKNRFIDSIRVLSDKSSLKTEAFEPASVLLVEDEPINAEVVKTMLERNGHTVEVATTGAAALHLATTVPFNLILMDINLPDMSGIETTRCIKAQGVDTEIVALTGNAYEEDKLKTKEAGMSYHLVKPVMYHELNNVIKLALRVAHEGHHHHHH	soluble
MDMRSHEMIERRREDNGNNNGGVVISNIISTNIDDNCNGNNNNTRVSCNSQTLDHHQSKSPSSFSISAAAKPTVRYRECLKNHAASVGGSVHDGCGEFMPSGEEGTIEALRCAACDCHRNFHRKEMDGVGSSDLISHHRHHHYHHNQYGGGGGRRPPPPNMMLNPLMLPPPPNYQPIHHHKYGMSPPGGGGMVTPMSVAYGGGGGGAESSSEDLNLYGQSSGEGAGAAAGQMAFSMSSSKKRFRTKFTTDQKERMMDFAEKLGWRMNKQDEEELKRFCGEIGVKRQVFKVWMHNNKNNAKKPPTPTTTL	not soluble
MCTALMAIPEDGDTEVVSEKTFKVFSLLNLDAPYLHDKAHVTEEEEITGCCGRRKGALIATMQVDEIGVMPGMTSKISLTVENKTKKRKKWMRKKDNHECVLLSLCQQLDFVAVNRNDPMMIDRKSITIAVESHGTCKTKAGVGPQTKEIEFSVPPNLPPTSIHANRLVTVSYFFKLDLDHFDLVLPVIVGSVKSSASNGSEK	not soluble
MGHHHHHHSHMCSALVVAAPHSGSGKTTVTAAIARYHRVQGRKVTVFKVGPDFIDPMILRQASGELVYQLDLWLVGEQGCRALLHRAAMDSDLILIEGVMGLFDGTPSSADLAKYFNIPVLGVIDAKAMAQTFAAVTFGLAKFCEDLPFSGVIANRVNTERHAELLSVSLPKAFRFYGRIPKDDTITLPERHLGLVQAQELSDIDVQLDKAASHIANTG	not soluble
MAHHHHHHMQTLDINNSFAVPFDEDPQDAGVWFFDTNYAQEMFAMHKRVLPKVKVVGWYSSGPTIQPNDMLLHLLVADRFCLNPVYCVVNTDPNNKGVPVRAYTTVQGREGTRSLEFRNIPTHLGAEEAEEIGIEHLLRDLTDSTITTLSTQVQERELSLVHLCKVLQQIEEYLKDVGNAVMPISEDVLEVLQELISLQPEIYARRSSTEMIRHTNDEAIATFLAAIARCIGALHGVIMNRRKLARELQEIKDRRARAAETRLENEKMKIEEAAKEKDTNQA	soluble
MNVGIKGFGAYAPEKIIDNAYFEQFLDTSDEWISKMTGIKERHWADDDQDTSDLAYEASVKAIADAGIQPEDIDMIIVATATGDMPFPTVANMLQERLGTGKVASMDQLAACSGFMYSMITAKQYVQSGDYHNILVVGADKLSKITDLTDRSTAVLFGDGAGAVIIGEVSEGRGIISYEMGSDGTGGKHLYLDKDTGKLKMNGREVFKFAVRIMGDASTRVVEKANLTSDDIDLFIPHQANIRIMESARERLGISKDKMSVSVNKYGNTSAASIPLSIDQELKNGKLKDDDTIVLVGFGGGLTWGAMTIKWGK	soluble
